Measured values as given in the supplement of paper PMC10567573.

B1: SLC35F2 (parent)
chain: SFMPLVIKVTSATSVNLGILTADL

Variants of: B1
Assay: protein stability index of a GFP-peptide fusion (GPS, HEK-293T) (PSI 1-6); higher = more stable
Details: c terminus: a fixed tail appended
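Also: lentivirally expressed fusions sorted by FACS into six bins by GFP to DsRed ratio, PSI derived from sequencing read proportions per bin multiplied by bin number.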

Variant | protein stability index
SFMPLVIKVTSAGSVNLGILTADL | 2.38
SFMPLVIKVTSAMSVNLGILTADL | 2.34
SFMPLVIKVTSALSVNLGILTADL | 2.94
SFMPLVIKVTSAPSVNLGILTADL | 3.09
SFMPLVIKVTSANSVNLGILTADL | 2.55
SFMPLVIKVTSAASVNLGILTADL | 3.02
SFMPLVIKVTSAKSVNLGILTADL | 2.16
SFMPLVIKVTSARSVNLGILTADL | 3.63
SFMPLVIKVTSADSVNLGILTADL | 3.02
SFMPLVIKVTSAVSVNLGILTADL | 2.43
SFMPLVIKVTSASSVNLGILTADL | 2.59
SFMPLVIKVTSAYSVNLGILTADL | 3.88
SFMPLVIKVTSAFSVNLGILTADL | 2.53
SFMPLVIKVTSAQSVNLGILTADL | 2.25
SFMPLVIKVTSAESVNLGILTADL | 2.6
SFMPLVIKVTSAHSVNLGILTADL | 4
SFMPLVIKVTSACSVNLGILTADL | 3.16
SFMPLVIKVTSAISVNLGILTADL | 3.67
SFMPLVIKVTSAWSVNLGILTADL | 2.75
SFMPLVIKVTSATSVMLGILTADL | 3.88
SFMPLVIKVTSATSVDLGILTADL | 2.94
SFMPLVIKVTSATSVYLGILTADL | 3.46
SFMPLVIKVTSATSVKLGILTADL | 3.43
SFMPLVIKVTSATSVVLGILTADL | 4.07

Variant | protein stability index
SFMPLVIKVTSATSVQLGILTADL | 3.34
SFMPLVIKVTSATSVFLGILTADL | 3.69
SFMPLVIKVTSATSVCLGILTADL | 3.4
SFMPLVIKVTSATSVELGILTADL | 2.55
SFMPLVIKVTSATSVILGILTADL | 4.17
SFMPLVIKVTSATSVLLGILTADL | 3.94
SFMPLVIKVTSATSVHLGILTADL | 2.74
SFMPLVIKVTSATSVALGILTADL | 2.18
SFMPLVIKVTSATSVWLGILTADL | 2.82
SFMPLVIKVTSATSVRLGILTADL | 3.2
SFMPLVIKVTSATSVTLGILTADL | 3.43
SFMPLVIKVTSATSVGLGILTADL | 2.93
SFMPLVIKVTSLTSVNLGILTADL | 3.32
SFMPLVIKVTSETSVNLGILTADL | 3.09
SFMPLVIKVTSFTSVNLGILTADL | 2.25
SFMPLVIKVTSPTSVNLGILTADL | 1.22
SFMPLVIKVTSKTSVNLGILTADL | 4.17
SFMPLVIKVTSSTSVNLGILTADL | 1.89
SFMPLVIKVTSQTSVNLGILTADL | 2.82
SFMPLVIKVTSRTSVNLGILTADL | 2.75
SFMPLVIKVTSCTSVNLGILTADL | 4.33
SFMPLVIKVTSYTSVNLGILTADL | 1.73
SFMPLVIKVTSGTSVNLGILTADL | 3.33
SFMPLVIKVTSTTSVNLGILTADL | 2.89

Variant | protein stability index
SFMPLVIKVTSWTSVNLGILTADL | 1.91
SFMPLVIKVTSNTSVNLGILTADL | 2.58
SFMPLVIKVTSHTSVNLGILTADL | 2.37
SFMPLVIKVTSITSVNLGILTADL | 2.85
SFMPLVIKVTSDTSVNLGILTADL | 2.82
SFMPLVIKVTSVTSVNLGILTADL | 2.75
SFMPLVIKVTSMTSVNLGILTADL | 2.9
SFMPLVIKVTEATSVNLGILTADL | 2.8
SFMPLVIKVTVATSVNLGILTADL | 2.64
SFMPLVIKVTNATSVNLGILTADL | 4.93
SFMPLVIKVTKATSVNLGILTADL | 2.9
SFMPLVIKVTIATSVNLGILTADL | 4.08
SFMPLVIKVTLATSVNLGILTADL | 1.96
SFMPLVIKVTQATSVNLGILTADL | 2.23
SFMPLVIKVTMATSVNLGILTADL | 3.94
SFMPLVIKVTTATSVNLGILTADL | 2.03
SFMPLVIKVTAATSVNLGILTADL | 4.19
SFMPLVIKVTDATSVNLGILTADL | 2.91
SFMPLVIKVTFATSVNLGILTADL | 4.62
SFMPLVIKVTCATSVNLGILTADL | 2.19
SFMPLVIKVTSATSVNEGILTADL | 2.24
SFMPLVIKVTSATSVNIGILTADL | 2.77
SFMPLVIKVTSATSVNTGILTADL | 2.56
SFMPLVIKVTSATSVNFGILTADL | 2.72

Variant | protein stability index
SFMPLVIKVTSATSVNHGILTADL | 2.92
SFMPLVIKVTSATSVNDGILTADL | 2.04
SFMPLVIKVTSATSVNNGILTADL | 2.99
SFMPLVIKVTSATSVNSGILTADL | 2.85
SFMPLVIKVTSATSVNMGILTADL | 3.87
SFMPLVIKVTSATSVNGGILTADL | 2.9
SFMPLVIKVTSATSVNCGILTADL | 3.14
SFMPLVIKVTSATSVNKGILTADL | 3.17
SFMPLVIKVTSATSVNQGILTADL | 3.52
SFMPLVIKVTSATSVNYGILTADL | 2.6
SFMPLVIKVTSATSVNWGILTADL | 3.32
SFMPLVIKVTSATSVNAGILTADL | 2.48
SFMPLVIKVTSATSVNVGILTADL | 2.44
SFMPLVIKVTSATSVNPGILTADL | 2.74
SFMPLVIKVTSATSVNRGILTADL | 2.5
SFMPLVIKVTSATSVNLGYLTADL | 2.38
SFMPLVIKVTSATSVNLGQLTADL | 2.64
SFMPLVIKVTSATSVNLGELTADL | 2.08
SFMPLVIKVTSATSVNLGCLTADL | 2.99
SFMPLVIKVTSATSVNLGFLTADL | 3.09
SFMPLVIKVTSATSVNLGLLTADL | 2.54
SFMPLVIKVTSATSVNLGMLTADL | 3.44
SFMPLVIKVTSATSVNLGTLTADL | 2
SFMPLVIKVTSATSVNLGGLTADL | 3.15

Variant | protein stability index
SFMPLVIKVTSATSVNLGSLTADL | 2.69
SFMPLVIKVTSATSVNLGKLTADL | 2.68
SFMPLVIKVTSATSVNLGRLTADL | 2.08
SFMPLVIKVTSATSVNLGPLTADL | 2.37
SFMPLVIKVTSATSVNLGDLTADL | 1.97
SFMPLVIKVTSATSVNLGHLTADL | 2.39
SFMPLVIKVTSATSVNLGNLTADL | 2.86
SFMPLVIKVTSATSVNLGALTADL | 3
SFMPLVIKVTSATSVNLGVLTADL | 2.77
SFMPLVIKVTSATSWNLGILTADL | 4.14
SFMPLVIKVTSATSRNLGILTADL | 3.44
SFMPLVIKVTSATSFNLGILTADL | 3.58
SFMPLVIKVTSATSSNLGILTADL | 3.78
SFMPLVIKVTSATSCNLGILTADL | 2.21
SFMPLVIKVTSATSNNLGILTADL | 2.58
SFMPLVIKVTSATSLNLGILTADL | 3.01
SFMPLVIKVTSATSYNLGILTADL | 2.21
SFMPLVIKVTSATSPNLGILTADL | 2.73
SFMPLVIKVTSATSDNLGILTADL | 3.98
SFMPLVIKVTSATSGNLGILTADL | 2.91
SFMPLVIKVTSATSINLGILTADL | 1.93
SFMPLVIKVTSATSTNLGILTADL | 3.48
SFMPLVIKVTSATSANLGILTADL | 3.38
SFMPLVIKVTSATSHNLGILTADL | 2.88

Variant | protein stability index
SFMPLVIKVTSATSKNLGILTADL | 3.59
SFMPLVIKVTSATSMNLGILTADL | 3.77
SFMPLVIKVTSATSVNLGICTADL | 2.67
SFMPLVIKVTSATSVNLGIFTADL | 3.49
SFMPLVIKVTSATSVNLGIATADL | 3.33
SFMPLVIKVTSATSVNLGINTADL | 1.97
SFMPLVIKVTSATSVNLGIITADL | 3.65
SFMPLVIKVTSATSVNLGIKTADL | 1.93
SFMPLVIKVTSATSVNLGIHTADL | 3.07
SFMPLVIKVTSATSVNLGIMTADL | 2.92
SFMPLVIKVTSATSVNLGIGTADL | 2.2
SFMPLVIKVTSATSVNLGIETADL | 2.87
SFMPLVIKVTSATSVNLGIDTADL | 1.59
SFMPLVIKVCSATSVNLGILTADL | 2.93
SFMPLVIKVWSATSVNLGILTADL | 3.57
SFMPLVIKVNSATSVNLGILTADL | 2.43
SFMPLVIKVESATSVNLGILTADL | 2.98
SFMPLVIKVVSATSVNLGILTADL | 3.4
SFMPLVIKVQSATSVNLGILTADL | 3.38
SFMPLVIKVYSATSVNLGILTADL | 2.64
SFMPLVIKVKSATSVNLGILTADL | 2.12
SFMPLVIKVRSATSVNLGILTADL | 2.69
SFMPLVIKVGSATSVNLGILTADL | 3.08
SFMPLVIKVMSATSVNLGILTADL | 2.46

Variant | protein stability index
SFMPLVIKVSSATSVNLGILTADL | 2.65
SFMPLVIKVDSATSVNLGILTADL | 3.46
SFMPLVIKVHSATSVNLGILTADL | 3.25
SFMPLVIKVISATSVNLGILTADL | 4.8
SFMPLVIKVPSATSVNLGILTADL | 1.31
SFMPLVIKVFSATSVNLGILTADL | 3.67
SFMPLVIKYTSATSVNLGILTADL | 3.58
SFMPLVIKQTSATSVNLGILTADL | 3.26
SFMPLVIKRTSATSVNLGILTADL | 1.81
SFMPLVIKTTSATSVNLGILTADL | 1.46
SFMPLVIKSTSATSVNLGILTADL | 1.56
SFMPLVIKNTSATSVNLGILTADL | 2.39
SFMPLVIKWTSATSVNLGILTADL | 2.28
SFMPLVIKPTSATSVNLGILTADL | 1.7
SFMPLVIKVTSATLVNLGILTADL | 2.15
SFMPLVIKVTSATWVNLGILTADL | 2.61
SFMPLVIKVTSATFVNLGILTADL | 2.94
SFMPLVIKVTSATPVNLGILTADL | 2.44
SFMPLVIKVTSATCVNLGILTADL | 3.32
SFMPLVIKVTSATHVNLGILTADL | 1.79
SFMPLVIKVTSATQVNLGILTADL | 1.71
SFMPLVIKVTSATMVNLGILTADL | 2.72
SFMPLVIKVTSATAVNLGILTADL | 2.47
SFMPLVIKVTSATNVNLGILTADL | 3.45

Variant | protein stability index
SFMPLVIKVTSATRVNLGILTADL | 2.42
SFMPLVIKVTSATSVNLDILTADL | 3.2
SFMPLVIKVTSATSVNLSILTADL | 3.19
SFMPLVIKVTSATSVNLNILTADL | 3.27
SFMPLVIKVTSATSVNLKILTADL | 2.9
SFMPLVIKVTSATSVNLIILTADL | 3.72
SFMPLVIKVTSATSVNLHILTADL | 3.1
SFMPLVIKVTSATSVNLVILTADL | 2.17
SFMPLVIKVTSATSVNLTILTADL | 3.29
SFMPLVIKVTSATSVNLYILTADL | 3.08
SFMPLVIKVTSATSVNLLILTADL | 3.54
SFMPLVIKVTSATSVNLWILTADL | 3.32
SFMPLVIKVTSATSVNLMILTADL | 2.55
SFMPLVIKVTSATSVNLQILTADL | 4.06
SFMPLVIKVTSATSVNLRILTADL | 3.18
SFMPLVIKVTSATSVNLCILTADL | 3.82
SFMPLVIKVTSATSVNLEILTADL | 2.91
SFMPLVIKVTSATSVNLPILTADL | 2.47
SFMPLVIKVTSATSVNLFILTADL | 3.03
SFMPLVIKVTSATSVNLAILTADL | 2.54
